The record followed here is PMC2779421.

In general, stoichiometry N refers to the number of molecules, sites or subunits per partner or assembly.

In experiment [1] the target is β-Amyloid peptide Aβ-(1–40). Nature of the experiment: filtration.
Experiment [2] has as its target β-Amyloid peptide Aβ-(1–40). Nature of the experiment: continuous-wave EPR.

Where “and” joins values, the source holds several entries; their conditions need not be identical. Equal values may be shown once.

“Spin-labeled Cys-(Aβ) (40 residue Aβ peptide variant containing an N-terminal cysteine, labeled with MTSL)” registered a % of the slow component (larger aggregates) in the total spectrum, retentate in experiment [1] of 34%. In addition, in experiment [2], the % of the slow component (larger aggregates) in the total spectrum, 5–6 h was 34%; the stoichiometry N is 8 molecules and 15 molecules.
